Measurements: US20090203134A1, “REMEDY FOR NERVE CELL REGENERATION” (Kyoto University, priority 2005, published 2009)

B1: Wnt3a: Wnt3a protein (R&D Systems), a secretory glycoprotein of the Wnt family (protein, UniProt P56704 19-352, looked up)
Protein Wnt-3a: SYPIWWSLAVGPQYSSLGSQPILCASIPGLVPKQLRFCRNYVEIMPSVAEGIKIGIQECQHQFRGRRWNCTTVHDSLAIFGPVLDKATRESAFVHAIASAGVAFAVTRSCAEGTAAICGCSSRHQGSPGKGWKWGGCSEDIEFGGMVSREFADARENRPDARSAMNRHNNEAGRQAIASHMHLKCKCHGLSGSCEVKTCWWSQPDFRAIGDFLKDKYDSASEMVVEKHRESRGWVETLRPRYTYFKVPTERDLVYYEASPNFCEPNPETGSFGTRDRTCNVSSHGIDGCDLLCCGRGHNARAERRREKCRCVFHWCCYVSCQECTRVYDVHTCK

Assays:
[1] = system: Muller cells; assay: Retinal organ culture, BrdU immunostaining of divided cells; type: cell-based, rat; details: 4 days
Method: (§1) The retina excluding the pigment epithelium was obtained from a 6-week-old adult DA rat (obtained from Shimizu Laboratory Supplies Co., Ltd. (Kyoto)) and a retinal organ culture was then carried out on a Millicell chamber filter. The retinal organ culture was conducted according to a method described in Methods 2002; 28: 387-395 and Brain Res 2002; 954: 286-293. The culture medium used was 50% Minimum Essential Medium +HEPES (Invitrogen Corporation)/25% Hank's solution (Invitrogen Corporation)/25% inactivated horse serum/200 μM L-glutamine/5.75 mg/ml glucose.
Wnt3a (100 ng/ml; R&D Systems) and BrdU (5ng/ml; SIGMA) were added to the culture medium everyday and a frozen specimen was then prepared after 4 days, followed by investigating the presence or absence of BrdU-positive divided cells by an immunological staining with a BrdU antibody.
Further, an inhibitor of glycogen synthase kinase 3β(GSK-3β), AR-A014418(J, Biol. Chem., Vol, 278, No. 46, p45937-45945, 2003), was added to a culture medium for the retina organ culture and the effect thereof was examined. […] In contrast, the number of BrdU-positive cells in control without the addition of AR-AO14418 was small.

[2] = system: Muller cells; assay: Retinal organ culture, Rhodopsin expression of divided cells (differentiation into retinal nerve cells); type: cell-based, rat; details: 4 day culture with Wnt3a, then 1 week without Wnt3a
Method: as §1
Further, after 4 day culture with the addition of Wnt3a, the culture medium was changed, and the culture was then cultured for 1 week without Wnt3a.

Molecule	number of BrdU-positive cells ([1]; retina organ culture, 5 μM AR-A014418 together with BrdU, versus control without addition, FIG. 4)	BrdU-positive divided cells (immunological staining with a BrdU antibody) ([1]; adult DA rat retinal organ culture, Wnt3a 100 ng/ml added everyday, compared with control without Wnt3a, FIG. 1)	ratio of the divided cells (number of divided cells in INL) ([1]; adult DA rat retinal organ culture, Wnt3a 100 ng/ml, FIG. 2)	identity of divided cells (glutamine synthetase and BrdU immunological staining) ([1]; adult DA rat retinal organ culture, Wnt3a 100 ng/ml, FIG. 3)	expression of Rhodopsin (marker of the visual cells) in divided cells [2]
COc1ccc(CNC(=O)Nc2ncc([N+](=O)[O-])s2)cc1 [AR-A014418, reference compound]	the number of BrdU-positive cells was increased	–	–	–	–
B1	–	many BrdU-positive divided cells in the retinal inner nuclear layer (INL)	dramatic increase in the number of the divided cells in INL	most of these divided cells were identified as glutamine synthetase positive Muller cells	a part of the divided cells express Rhodopsin
